# T1: IFT54^CH (IFT54 residues 1-137) (human, UniProt Q8TDR0 1-137)
# T1 construct: IFT54 (IFT-B subunit), human, CH domain, residues 1-137; also called IFT54 CH domain; source: baculovirus system, purified (IgG Sepharose, released by TEV protease); not shown: ZZ, N-terminal, cleaved
# T1 sequence (looked up): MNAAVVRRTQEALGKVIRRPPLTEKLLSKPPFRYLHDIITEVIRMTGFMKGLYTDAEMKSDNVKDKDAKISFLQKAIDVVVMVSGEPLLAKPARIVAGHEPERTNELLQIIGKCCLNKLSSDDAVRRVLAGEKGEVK
# B1: ZZ-SNAP-GST-WDR60^355-449 (domain or fragment, human, UniProt Q8WVS4 355-449, looked up)
# chain: IEKEETDLENARADAYTASCEDDFEDYEDDFEVCDGDDDESSNEPESREKLEELPLAQKKEIQEIQRAINAENERIGELSLKLFQKRGRTEFEKE
# notes: WDR60/DYNC2I1, human, residues 355-449 of the N-terminal extension; released by TEV protease afterwards for SDS-PAGE; source: baculovirus system, immobilized on IgG Sepharose 6 resin and washed; not shown: ZZ, N-terminal, kept; SNAP, N-terminal, kept; GST, N-terminal, kept
# Target: T1, IFT54^CH (IFT54 residues 1-137)
# Test: pull-down; ZZ-SNAP-GST-WDR60^355-449 immobilized on IgG Sepharose 6; purified IFT54^CH at 4.6 µM flowed over in wash buffer (30 mM HEPES pH 7.4, 150 mM KCl, 1 mM EGTA, 1 mM DTT, 10% glycerol); TEV elution, SDS-PAGE, Sypro Red
# Details: both partners purified
binder,measurement,value
B1,binding result,binds

# From paper PMC10987677 (The EMBO Journal, 2024)
